# Source: article PMC6943196
# Biological target: Tolypothrix sp. PCC 7601 Orange Carotenoid Protein 1 (OCP1) (Tolypothrix sp. PCC 7601)
# Assay: crystal structure
substance,measurement,value
Tolypothrix sp. PCC 7601 Orange Carotenoid Protein 1 (OCP1) (natural protein),stoichiometry N,2
